What was measured:
[1] = target: T1, WRS (tryptophanyl-tRNA synthetase), purified recombinant antigen / standard (human, UniProt P23381 1-471, limits assumed); assay: SPR (ProteOn XPR36), WRS amine-coupled to GLC chip, scFv 500-30 nM as analyte, 25 C
T1 construct: The recombinant construct used for panning, SPR, Luminex beads and ELISA is not described; also called WRS 항원; 재조합 WRS 표준물질
T1 sequence (looked up): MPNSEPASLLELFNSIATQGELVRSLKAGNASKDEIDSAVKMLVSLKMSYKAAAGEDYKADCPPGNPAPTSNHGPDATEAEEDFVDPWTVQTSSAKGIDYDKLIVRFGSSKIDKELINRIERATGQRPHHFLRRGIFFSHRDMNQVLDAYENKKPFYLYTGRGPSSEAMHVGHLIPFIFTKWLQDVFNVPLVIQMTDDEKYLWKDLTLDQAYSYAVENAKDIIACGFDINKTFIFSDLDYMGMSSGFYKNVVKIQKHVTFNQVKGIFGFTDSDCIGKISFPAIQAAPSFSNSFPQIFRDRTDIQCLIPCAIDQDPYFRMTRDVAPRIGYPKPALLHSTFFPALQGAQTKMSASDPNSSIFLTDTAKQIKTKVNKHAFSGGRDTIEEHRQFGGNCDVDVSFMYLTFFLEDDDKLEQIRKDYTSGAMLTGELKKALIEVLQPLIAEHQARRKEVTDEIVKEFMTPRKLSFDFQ

[2] = target: T2, SRS (Seryl-tRNA synthetase), recombinant (UniProt P49591 1-514, limits assumed); assay: Luminex multiplex bead assay, antigen coupled to beads, anti-HA-biotin / SA-PE detection
T2 construct: also called 세릴-tRNA 합성효소

[3] = target: T3, HRS (Histidyl-tRNA synthetase), recombinant (UniProt P12081 1-509, limits assumed); assay: as above
T3 construct: also called 히스티딜-tRNA 합성효소
T3 sequence (looked up): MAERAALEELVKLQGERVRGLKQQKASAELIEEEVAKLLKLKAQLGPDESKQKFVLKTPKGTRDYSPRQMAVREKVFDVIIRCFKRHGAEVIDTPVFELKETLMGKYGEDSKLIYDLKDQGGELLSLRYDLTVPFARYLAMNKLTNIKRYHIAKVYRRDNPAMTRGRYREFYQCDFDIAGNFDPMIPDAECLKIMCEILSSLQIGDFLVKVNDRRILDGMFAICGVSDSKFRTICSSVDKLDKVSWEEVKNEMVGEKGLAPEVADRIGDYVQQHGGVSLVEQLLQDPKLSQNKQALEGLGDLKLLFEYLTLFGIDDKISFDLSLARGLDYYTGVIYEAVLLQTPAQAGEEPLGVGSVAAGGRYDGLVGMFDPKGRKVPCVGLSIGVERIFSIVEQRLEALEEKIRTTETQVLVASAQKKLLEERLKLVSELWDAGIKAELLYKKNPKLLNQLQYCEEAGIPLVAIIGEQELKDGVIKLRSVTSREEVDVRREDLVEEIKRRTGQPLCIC

[4] = target: T4, KRS (Lysyl-tRNA synthetase), recombinant (UniProt Q15046 1-597, limits assumed); assay: as above
T4 construct: also called 리실-tRNA 합성효소

[5] = target: T5, YRS (Tyrosyl-tRNA synthetase), recombinant (UniProt P54577 1-528, limits assumed); assay: as above
T5 construct: also called 타이로실-tRNA 합성효소
T5 sequence (looked up): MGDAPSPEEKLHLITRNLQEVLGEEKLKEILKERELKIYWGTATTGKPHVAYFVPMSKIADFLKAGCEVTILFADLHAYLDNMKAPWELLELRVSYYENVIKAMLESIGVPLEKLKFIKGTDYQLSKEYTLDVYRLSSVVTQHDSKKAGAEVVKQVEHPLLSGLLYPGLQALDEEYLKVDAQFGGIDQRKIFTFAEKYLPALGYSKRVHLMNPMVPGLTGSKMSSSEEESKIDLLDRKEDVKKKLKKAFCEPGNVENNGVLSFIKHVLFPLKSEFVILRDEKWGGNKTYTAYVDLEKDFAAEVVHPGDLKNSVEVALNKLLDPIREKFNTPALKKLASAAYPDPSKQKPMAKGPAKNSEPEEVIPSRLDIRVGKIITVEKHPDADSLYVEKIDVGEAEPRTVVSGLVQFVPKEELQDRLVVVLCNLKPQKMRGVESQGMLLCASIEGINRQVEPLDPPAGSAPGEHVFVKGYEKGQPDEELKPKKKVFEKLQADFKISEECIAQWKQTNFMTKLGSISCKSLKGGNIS

[6] = target: T6, NRS (Asparaginyl-tRNA synthetase), recombinant (UniProt O43776 1-548, limits assumed); assay: as above
T6 construct: also called 아스파라기닐딜-tRNA 합성효소
T6 sequence (looked up): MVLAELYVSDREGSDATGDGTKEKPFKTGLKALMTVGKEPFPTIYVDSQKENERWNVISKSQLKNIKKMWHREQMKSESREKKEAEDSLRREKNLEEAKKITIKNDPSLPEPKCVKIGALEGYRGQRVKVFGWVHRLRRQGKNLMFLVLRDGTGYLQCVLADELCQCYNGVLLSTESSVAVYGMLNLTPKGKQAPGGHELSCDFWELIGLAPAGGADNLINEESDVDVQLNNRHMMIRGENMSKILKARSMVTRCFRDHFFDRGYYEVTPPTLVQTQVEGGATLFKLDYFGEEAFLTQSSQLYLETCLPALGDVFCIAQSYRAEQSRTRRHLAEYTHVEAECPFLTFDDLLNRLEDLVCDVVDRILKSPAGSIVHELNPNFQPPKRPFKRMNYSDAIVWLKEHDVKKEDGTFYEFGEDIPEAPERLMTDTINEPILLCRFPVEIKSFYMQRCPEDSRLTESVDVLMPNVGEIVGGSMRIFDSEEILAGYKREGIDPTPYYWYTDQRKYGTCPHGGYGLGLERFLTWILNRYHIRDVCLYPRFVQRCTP

[7] = target: T7, AIMP1 (Aminoacyl-tRNA-synthetase-interacting multifunctional protein 1), recombinant (UniProt Q12904 1-312, limits assumed); assay: as above
T7 construct: also called p43; AIMP1(p43)
T7 sequence (looked up): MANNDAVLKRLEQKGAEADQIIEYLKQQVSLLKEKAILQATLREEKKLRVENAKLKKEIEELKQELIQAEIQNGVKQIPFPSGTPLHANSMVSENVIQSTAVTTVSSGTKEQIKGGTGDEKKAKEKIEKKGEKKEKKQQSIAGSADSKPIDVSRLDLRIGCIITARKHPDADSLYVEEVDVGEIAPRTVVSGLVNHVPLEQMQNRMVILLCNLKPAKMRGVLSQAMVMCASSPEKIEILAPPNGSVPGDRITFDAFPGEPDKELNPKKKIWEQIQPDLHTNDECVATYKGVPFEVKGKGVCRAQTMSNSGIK

[8] = target: T8, GRS (Glycyl-tRNA synthetase), recombinant (UniProt P41250 55-739, limits assumed); assay: as above
T8 construct: also called 글리실-tRNA 합성효소
T8 sequence (looked up): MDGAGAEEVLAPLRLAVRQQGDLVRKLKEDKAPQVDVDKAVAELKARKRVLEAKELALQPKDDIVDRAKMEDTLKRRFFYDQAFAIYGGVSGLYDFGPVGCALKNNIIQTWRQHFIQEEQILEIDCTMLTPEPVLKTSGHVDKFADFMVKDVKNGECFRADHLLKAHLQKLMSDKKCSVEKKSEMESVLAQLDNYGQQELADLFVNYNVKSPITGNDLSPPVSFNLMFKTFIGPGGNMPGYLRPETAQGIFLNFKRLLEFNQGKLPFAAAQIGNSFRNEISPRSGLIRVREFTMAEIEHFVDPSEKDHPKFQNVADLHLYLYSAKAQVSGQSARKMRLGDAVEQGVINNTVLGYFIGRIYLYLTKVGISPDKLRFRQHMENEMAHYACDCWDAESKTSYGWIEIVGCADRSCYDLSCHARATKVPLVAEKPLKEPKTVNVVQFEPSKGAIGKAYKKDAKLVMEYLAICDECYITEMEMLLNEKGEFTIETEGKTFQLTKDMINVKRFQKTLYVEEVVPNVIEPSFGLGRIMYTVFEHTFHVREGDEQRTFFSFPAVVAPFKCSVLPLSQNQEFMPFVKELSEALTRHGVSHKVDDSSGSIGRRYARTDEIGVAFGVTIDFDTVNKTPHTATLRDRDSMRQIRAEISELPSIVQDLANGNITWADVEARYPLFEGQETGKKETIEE

T4 sequence (Q15046 whole entry): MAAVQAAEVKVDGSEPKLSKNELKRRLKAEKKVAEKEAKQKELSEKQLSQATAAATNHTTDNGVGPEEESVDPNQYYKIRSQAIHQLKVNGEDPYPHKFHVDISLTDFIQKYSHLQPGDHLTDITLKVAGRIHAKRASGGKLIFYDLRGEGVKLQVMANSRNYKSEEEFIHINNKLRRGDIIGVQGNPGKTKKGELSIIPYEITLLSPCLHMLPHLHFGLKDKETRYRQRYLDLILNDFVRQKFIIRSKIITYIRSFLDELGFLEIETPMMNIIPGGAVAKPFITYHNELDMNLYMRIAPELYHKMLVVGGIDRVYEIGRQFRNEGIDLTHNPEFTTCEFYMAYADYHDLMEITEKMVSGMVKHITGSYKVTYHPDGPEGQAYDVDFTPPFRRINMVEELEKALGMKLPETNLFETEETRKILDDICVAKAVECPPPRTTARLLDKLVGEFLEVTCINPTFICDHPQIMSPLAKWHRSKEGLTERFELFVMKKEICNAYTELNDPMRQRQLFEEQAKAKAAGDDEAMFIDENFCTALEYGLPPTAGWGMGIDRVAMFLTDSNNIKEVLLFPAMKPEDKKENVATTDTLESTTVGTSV
T2 sequence (P49591 whole entry): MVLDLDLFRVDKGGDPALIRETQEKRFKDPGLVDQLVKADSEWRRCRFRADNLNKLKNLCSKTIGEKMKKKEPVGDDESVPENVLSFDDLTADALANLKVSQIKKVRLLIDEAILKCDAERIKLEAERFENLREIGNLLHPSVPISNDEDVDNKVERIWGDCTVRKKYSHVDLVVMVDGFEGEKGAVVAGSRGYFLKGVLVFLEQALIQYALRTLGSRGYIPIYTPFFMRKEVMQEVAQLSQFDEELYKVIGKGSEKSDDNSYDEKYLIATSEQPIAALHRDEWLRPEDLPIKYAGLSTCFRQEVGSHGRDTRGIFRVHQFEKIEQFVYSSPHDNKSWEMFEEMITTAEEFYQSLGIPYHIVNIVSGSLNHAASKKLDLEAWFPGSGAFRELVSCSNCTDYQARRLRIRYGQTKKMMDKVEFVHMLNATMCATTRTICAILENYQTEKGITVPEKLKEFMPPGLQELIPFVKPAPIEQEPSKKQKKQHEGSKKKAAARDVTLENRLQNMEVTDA

B1: anti-WRS scFv Biocon-W1 (scFv)
scFv: EVQLLESGGGLVQPGGSLRLSCAASGLAFSDYYMSWVRLAPGKGLEWVSVISPGSGSKYYADSVRGRFTVSRDNSKNTLYLQMNSLRAEDTAVYYCARKNQAFDYWGQGTLVTVSSGGGGSGGGGSGGGGSQSVLTQPPSASGTPGQRVTISCTGSSSNIGSNYVTWYQQLPGTAPKLLIYANSQRPSGVPDRFSGSKSGTSASLAISGLRSEDEADYYCASWDASLSGYVFGGGTKLTVL
notes: Single clone selected from a human VH3-23/VL1g synthetic scFv phage library and expressed in the E. coli periplasm; also called 항 WRS scFv 항체; 본 발명의 항체; not shown: His and HA tags from the pComb3X vector, implied by Ni-NTA purification and anti-HA detection
How did the Kd [1] turn out when B1 was run?
The Kd was 700 nM.

Does B1 bind [2]?
Result: no binding

Does B1 bind [3]?
Result: no binding

Does B1 bind [4]?
Result: no binding

Does B1 bind [5]?
Result: no binding

Does B1 bind [6]?
Result: no binding

Does B1 bind [7]?
Result: no binding

Does B1 bind [8]?
Result: no binding

Reference: patent KR20150077891A (dated 2015)
